The values below are quoted from earlier work in paper PMC10108826.

By Kd is commonly meant the free concentration of one partner at which half of the binding sites on the other are occupied at equilibrium, for simple one-to-one binding.

This data set has as its target sIL-6R soluble ECD (Homo sapiens) (UniProt P08887).
Sequence of UniProt P08887 (P08887 20-355): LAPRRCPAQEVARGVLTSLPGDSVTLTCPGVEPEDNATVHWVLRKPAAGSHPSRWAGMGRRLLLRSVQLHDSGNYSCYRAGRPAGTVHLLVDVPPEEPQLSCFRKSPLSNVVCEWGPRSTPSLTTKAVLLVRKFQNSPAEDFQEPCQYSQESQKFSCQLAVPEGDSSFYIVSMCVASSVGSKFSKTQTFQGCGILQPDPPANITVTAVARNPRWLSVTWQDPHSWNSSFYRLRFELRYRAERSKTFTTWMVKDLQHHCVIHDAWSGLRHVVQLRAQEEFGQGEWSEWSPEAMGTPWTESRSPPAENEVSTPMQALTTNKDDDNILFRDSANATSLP

IL-6 (from UniProt P05231): the Kd was 1 nM.
